Tested on: Ae. aegypti adult females, RJ strain
Assay: dsRNA treatment of larvae followed by pyrethroid (deltamethrin) adulticide bottle bioassay
Format: in vivo, Aedes aegypti
Settings: soaking 0.1 μg/μL 24 hours plus 4 feedings with food-containing dsRNA, deltamethrin 0.5 μg/bottle
Method: Third instar larvae were treated (in groups of 100 larvae) in a final volume of 3 mL of dsRNA solution in autoclaved water (0.5 μg/μL for sodium channel (AAEL008297), PgP (AAEL010379) and Ago3 (AAEL007823) dsRNA, or 0.1 μg/μL for CYP9J26 (JF924909.1). The control group was kept in 3 ml sterile water only. Larvae were soaked in the dsRNA solutions for 24 hr at 27° C., and then transferred into new containers (300 larvae/1500 mL of chlorine-free tap water), which were also maintained at 27° C., and were provided 6 mg/100 mL lab dog/cat diet (Purina Mills) suspended in water as a source of food on a daily basis. As pupae developed, they were transferred to individual vials to await eclosion and sex sorting. For bioassays purpose only females up to five days old were used. See FIG. 11 for detailed explanation of this experiment.
After soaking in the dsRNA solutions for 24 hr at 27° C., the larvae were transferred into new containers (300 larvae/1500 mL of chlorine-free tap water), and were provided agarose cubes containing 300 μg of dsRNA once a day for a total of four days. The larvae were reared until adult stage. […]
Bottles were prepared following the Brogdon and McAllister (1998) protocol [Brogdon and McAllister (1998) Emerg Infect Dis 4:605-613]. […] At 15, 30 and 45 min intervals, the number of live and dead mosquitoes in each bottle was recorded. […]

B1: CYP9J26 dsRNA: dsRNA targeting Cytochrome p450 (CYP9J26) JF924909.1, SEQ ID NO: 203 (nucleic acid)
chain: CTTCAACGACTTCGTCCGATCAATTTACAACAAATATCCTGGAGTGAAGGTTTTCGGAATGTTCGAGACGATCACGCCGTTCTTCGTGATTCGCGATCCGGAGTTGATCAAGCAGATCGGCATCAAGGATTTCGATCACTTCGTTGACCACCGTCCGACGTTCGGACTGGACGATGAAACGGCGGAGCATCCGAAGGCGCTGTTCCGCAAGACGCTGTTCTCGATGACCGGTCAACGGTGGAAGGAGATGCGCGCTACGCTGAGTCCGGCTTTTACCGGCAGTAAGATGCGACAGATGTTCTCGCTGATGAGCGAATGCTGCGACGAAATGATGAAGCACTACCTGGACAAGGCGAAGGGCACGGGAAGGGTGGAAGTCGAAATGAAGGACTTGCTGAGTCGAATCACTATCAATGTGATTGCGTCGTGTGCTTTTGGAATCAAGGTGGAC
modifications: double stranded RNA
susceptibility of adult mosquitoes to deltamethrin (FIG. 18): more sensitive to deltamethrin during the first 15 minutes | susceptibility of adult mosquitoes to deltamethrin (FIG. 18) (listed as CYP9J29 dsRNA): affects the susceptibility

Source: patent US20170051285A1, “COMPOSITIONS AND METHODS OF USING SAME FOR REDUCING RESISTANCE TO MOSQUITO LARVICIDES” (priority 2014, published 2017)
